This note sets out measurements from publication PMC10415362, “Mechanism of U6 snRNA oligouridylation by human TUT1”.

In this data set the target is T1, hTUT1_ZF-RRM (Homo sapiens, UniProt Q9H6E5 1-140).
T1 sequence: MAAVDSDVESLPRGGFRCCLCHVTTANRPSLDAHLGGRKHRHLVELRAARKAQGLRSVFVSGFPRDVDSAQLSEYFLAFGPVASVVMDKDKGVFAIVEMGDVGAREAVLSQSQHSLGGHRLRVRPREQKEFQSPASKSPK
As to the kind of experiment: EMSA; 10 mM MgCl2; EMSA: 50 mM Tris-Cl pH 8.5, 100 mM NaCl, 10 mM MgCl2, 10 mM beta-mercaptoethanol, 10% glycerol, room temperature 15 min; RNA 50 nM (U6) or 100 nM (U6_mini); protein 0-1000 nM. As to conditions: protein: recombinant; tags: His tag implied (pET22b, Ni-NTA); hairpin with 5' single strand. Background: A gel shift assay detects complexes by their altered migration in electrophoresis.

B1: U6_mini (structured_RNA)
RNA: GGAUACUAAAAUUGGAACGAUACAGAGUUCGCUCGUGAAGCGUUCCAUAUUUU
For the molecule B1, the Kd stood at 0.204 ± 0.041 µM.

By Kd is commonly meant a measure of binding affinity in units of concentration.
